Measurements taken from article PMC9961482.

Target: Encapsulin–SpyTag (Myxococcus xanthus | Streptococcus pyogenes) (UniProt Q1D6H4)
Assay: reducing SDS-PAGE + SEC

Encapsulin–SpyTag (Myxococcus xanthus | Streptococcus pyogenes), sequence (Q1D6H4 1-287, tags left off): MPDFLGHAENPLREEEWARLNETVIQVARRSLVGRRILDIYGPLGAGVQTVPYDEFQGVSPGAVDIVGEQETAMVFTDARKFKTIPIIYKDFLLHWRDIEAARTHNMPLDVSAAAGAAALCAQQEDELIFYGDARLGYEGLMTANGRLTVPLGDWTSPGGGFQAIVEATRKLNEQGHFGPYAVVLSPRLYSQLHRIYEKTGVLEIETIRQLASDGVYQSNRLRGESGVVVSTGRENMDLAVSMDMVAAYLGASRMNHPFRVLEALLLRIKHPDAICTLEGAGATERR

mRBD–SpyCatcher (from UniProt P0DTC2 332-532)
per cent conjugation: 90 per cent
